Reference: patent US20090081234A1 (published 2009)

Target: recombinant human TNFα (human, UniProt P01375 77-233)
Experiment: cell-based or functional assay

recombinant human TNFα, sequence (P01375 77-233 limits assumed): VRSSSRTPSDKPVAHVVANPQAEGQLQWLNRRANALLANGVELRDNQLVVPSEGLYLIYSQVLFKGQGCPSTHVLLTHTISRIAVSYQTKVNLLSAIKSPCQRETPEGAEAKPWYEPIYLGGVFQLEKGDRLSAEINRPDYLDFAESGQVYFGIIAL

neutralizing TNFα bioactivity: 4 fold
B1: TNV196 (antibody, V domains shown)
VH: QVQLVESGGGVVQPGRSLRLSCAASGFTFSSYAMHWVRQAPGKGLEWVAFISYDGSNKKSADSVKGRFTVSRDNSKNTLFLQMNSLRAEDTAVFYCARDRGIGAGGNYYYYGMDVWGQGTTVTVSS
VL: EIVLTQSPATLSLSPGERATLSCRASQSVYSYLAWYQQKPGQAPRLLIYDASNRATGIPARFSGSGSGTDFTLTISSLEPEDFAVYYCQQRSNWPPFTFGPGTKVDIK
